Molecular target: N-HGbRL, the N-terminal globin domain of HGbRL from Methylacidiphilum infernorum (Methylacidiphilum infernorum)
Assay: crystal structure; open, imidazole-bound form; space group C2, two subunits in the asymmetric unit; crystals at 20 °C in 3.5 M 1,6-hexanediol, 0.1 M sodium citrate pH 5.6; 1.94 Å

stoichiometry N: 2
Substance: N-HGbRL, the N-terminal globin domain of HGbRL from Methylacidiphilum infernorum (domain or fragment)
